Read-outs that look alike come from different tables or passages of the source.
How the values were obtained:
Assay in all cases: EMSA
[1] = molecular target: T1, PU.1 (UniProt P17947 1-270)
[2] = molecular target: T1, PU.1; remark: listed apart in the source
[3] = molecular target: T1, PU.1; remark: listed apart in the source

B1: rs1320496-T (dsDNA)
DNA 1: CAGGAGGGGAAGTGGGATGCATGAGAAGAGGACGCGTTTC
DNA 2: GAAACGCGTCCTCTTCTCATGCATCCCACTTCCCCTCCTG
binding result [1]: binds

B2: rs1412445-T (dsDNA)
DNA 1: GGTCATTAGGAGGATGTTGGTGCTATTAATAATAGAG
DNA 2: CTCTATTATTAATAGCACCAACATCCTCCTAATGACC
binding result [2]: no binding

B3: rs1412444-T (dsDNA)
DNA 1: CTATTTGCCTTTAAACACTGGAAATAACACCAGTGGC
DNA 2: GCCACTGGTGTTATTTCCAGTGTTTAAAGGCAAATAG
binding result [3]: binds

Source: doi:10.1101/2022.11.12.516293
